Consider eight molecules from patent publication US20260191981A1 (ARROWHEAD PHARMACEUTICALS, published 2026).

The labels stand for the following.
B1: Fab0061 (Fab, V domains shown)
VH: EVQLVESGGGLVQPGGSLRLSCATSGYTFTSYWMHWVRQAPGKGLEWVAEINPTNGRVNYIEKFKSRITLSVDKSKSTVYLQMNSLRAEDTAVYYCARGTRAYHYWGQGTLVTVSS
VL: DIQLTQSPSSLSASVGDRVTITCRASDGLYSNLAWYQQKPGKAPKLLIYDATKLASGVPSRFSGSGSGTDYTLTISSLQPEDFATYYCQHFWGTPLTFGQGTKVEIKR
B2: Fab0062 (Fab, V domains shown)
VH: B1 VH
VL: B1 VL with T52F, K53N
B3: Fab0063 (Fab, V domains shown)
VH: B1 VH
VL: B1 VL with K53R
B4: Fab0060 (Fab, V domains shown)
VH: B1 VH with M34V, V58T
VL: B1 VL
B5: Fab0002-siRNA conjugate (Fab, V domains shown)
VH: EVQLVQSGAEVKKPGASVKVSCKASGYTFTSYWMHWVRQAPGQRLEWIGEINPTNGRTNYIEKFKSRATLTVDKSASTAYMELSSLRSEDTAVYYCARGTRAYHYWGQGTMVTVSS
VL: B1 VL with L4M, G28N, A43S, I48V, K53N, S56D
modifications: siRNA-linker on a reduced cysteine; chain and residue not stated
notes: also called Fab0002 (BLI conjugate columns)
B6: Fab0073-siRNA conjugate (Fab, V domains shown)
VH: B1 VH with T30K, V58T
VL: B1 VL with G28N, S31R
modifications: siRNA-linker on a reduced cysteine; chain and residue not stated
notes: also called Fab0073 (BLI conjugate columns)
B7: Fab0072-siRNA conjugate (Fab, V domains shown)
VH: B1 VH with T30N, V58F
VL: B1 VL with G28N, S31R, T52R, K53N
modifications: siRNA-linker on a reduced cysteine; chain and residue not stated
notes: also called Fab0072 (BLI conjugate columns)
B8: Fab0074-siRNA conjugate (Fab, V domains shown)
VH: B1 VH with T30K, V58T
VL: B1 VL with T52K, K53N
modifications: siRNA-linker on a reduced cysteine; chain and residue not stated
notes: also called Fab0074 (BLI conjugate columns)

Residue numbers refer to the chain shown, from its start.

T6 sequence (P02786 89-760 limits assumed): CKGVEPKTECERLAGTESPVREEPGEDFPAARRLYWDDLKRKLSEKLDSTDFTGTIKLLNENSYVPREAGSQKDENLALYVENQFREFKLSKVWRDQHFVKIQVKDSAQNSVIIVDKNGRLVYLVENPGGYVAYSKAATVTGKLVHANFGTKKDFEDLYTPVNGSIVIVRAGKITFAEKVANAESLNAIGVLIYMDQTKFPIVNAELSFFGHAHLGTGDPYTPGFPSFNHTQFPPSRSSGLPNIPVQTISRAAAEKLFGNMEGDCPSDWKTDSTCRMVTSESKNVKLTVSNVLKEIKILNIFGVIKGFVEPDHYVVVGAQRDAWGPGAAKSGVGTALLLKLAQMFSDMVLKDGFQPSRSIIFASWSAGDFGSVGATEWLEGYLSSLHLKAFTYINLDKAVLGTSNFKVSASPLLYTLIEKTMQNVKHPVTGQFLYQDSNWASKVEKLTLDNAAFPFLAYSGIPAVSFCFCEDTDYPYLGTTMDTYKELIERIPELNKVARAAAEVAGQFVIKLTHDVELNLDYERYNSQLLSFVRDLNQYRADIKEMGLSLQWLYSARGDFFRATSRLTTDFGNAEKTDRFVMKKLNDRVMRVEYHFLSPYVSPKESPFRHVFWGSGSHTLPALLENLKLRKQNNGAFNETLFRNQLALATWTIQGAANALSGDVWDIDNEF
T4 sequence (P02786 89-760 limits assumed): as above

The target of the first assay is T1, cynomolgus monkey transferrin receptor 1 (cTfR1) (cynomolgus monkey, UniProt H9EXL1 89-760 (rhesus entry)).
T1 construct: The ELISA against cTfR1 is not described in the text
T1 sequence (chain, as listed by the source): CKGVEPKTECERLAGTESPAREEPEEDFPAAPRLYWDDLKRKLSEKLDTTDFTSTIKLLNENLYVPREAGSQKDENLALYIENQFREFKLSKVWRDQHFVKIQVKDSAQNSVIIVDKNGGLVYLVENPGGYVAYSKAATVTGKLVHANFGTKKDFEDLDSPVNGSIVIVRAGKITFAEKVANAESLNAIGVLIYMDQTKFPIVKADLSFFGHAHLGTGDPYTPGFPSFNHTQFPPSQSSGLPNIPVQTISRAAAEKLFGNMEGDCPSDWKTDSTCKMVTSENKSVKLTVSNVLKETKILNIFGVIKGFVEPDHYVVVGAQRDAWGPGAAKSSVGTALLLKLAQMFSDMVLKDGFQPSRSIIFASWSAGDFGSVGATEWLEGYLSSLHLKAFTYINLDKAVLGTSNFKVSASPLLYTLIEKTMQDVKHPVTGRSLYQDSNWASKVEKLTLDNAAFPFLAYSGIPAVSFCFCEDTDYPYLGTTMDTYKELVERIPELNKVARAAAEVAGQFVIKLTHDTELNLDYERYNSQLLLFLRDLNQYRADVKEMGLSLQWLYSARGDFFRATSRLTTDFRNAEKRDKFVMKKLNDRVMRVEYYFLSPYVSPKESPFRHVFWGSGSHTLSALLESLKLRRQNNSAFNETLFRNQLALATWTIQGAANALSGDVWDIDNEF
In words: competition phage ELISA (phage-displayed Fab). A general note: An ELISA detects its analyte on a solid surface through an enzyme-linked reagent.
A word on the Kd: it is a measure of binding affinity in units of concentration. As to B1, the Kd came out at 1.75 nM.
As to B2, binding was characterised by a dissociation constant (Kd) of 3.48 nM.
B3 returned a Kd of 2.63 nM.
B4 gave a Kd of 1.56 nM.

For another assay, the target named is T2, human transferrin receptor 1 (hTfR1) (human, UniProt P02786 89-760, limits assumed).
T2 construct: The selections used the biotinylated ECD domain of hTfR1
T2 sequence (P02786 89-760 limits assumed): as the sequence (P02786 89-760 limits assumed) above
Put plainly: competition ELISA, Fab.
On to B1, for which the Kd stood at 0.95 nM.
Regarding B2, binding was characterised by a dissociation constant (Kd) of 1.1 nM.
Turning to B3, the equilibrium dissociation constant (Kd) turned out to be 0.67 nM.
B4 showed a Kd of 0.81 nM.

The target of a further assay is T3, biotinylated cTfR1 (Acro Bio p/n TFR-C8249) (cynomolgus monkey, UniProt H9EXL1 89-760 (rhesus entry), biotinylated; site not stated).
T3 construct: Bought reagent of the BLI assay
T3 sequence (chain, as listed by the source): as the sequence (chain, as listed by the source) above
Put plainly: BLI, Octet RH16, biotinylated TfR1 on streptavidin sensor; Fab-siRNA conjugate. How it is done: Samples were analyzed via Bio-Layer Interferometry (BLI) to determine kinetics against cynomolgus monkey transferrin receptor 1 (cTfR1). Briefly, an Octet RH16 (Sartorius) was used for BLI measurements using streptavidin biosensors (Sartorius p/n 18-5019) to irreversibly immobilize biotinylated cTfR1 (Acro Bio p/n TFR-C8249). […] Sample diluent was prepared in house and is composed of 10 mM PBS pH 7.4 (150 mM NaCl), 0.01% BSA, 0.002% Tween 20, and 0.01% kathon. A 96-well plate was used for analysis, filled with required samples solutions and a row of 10 μg/mL cTfR1 for loading of the streptavidin sensors. For each sample, one well was reserved for a reference sensor control (non-specific binding evaluation with no cTfR1 on surface in highest sample concentration) and a sample reference (buffer only on a cTfR1 loaded sample). One well was also reserved for a second replicate of one of the five concentrations to evaluate sensor and method variability. Eight channels were used for the highest sensitivity offered by the Octet RH16. For each assay performed, the steps were as follows: a sensor check for baseline evaluation of sensor alone in buffer was performed for 30 seconds, followed by loading of the cTfR1 for 60 seconds, then a baseline check for 90 seconds to verify stability of cTfR1 immobilized to sensor surface, then sample association for 180 seconds, and finally sample dissociation for 300 seconds. A shake speed of 1000 was used for all steps. Sample results were analyzed in Octet Analysis software.
In general terms: In BLI a coated tip is dipped into the sample, and binding shifts an interference pattern.
For orientation: koff means the first-order rate constant of dissociation. For orientation: kon means the second-order rate constant of association. Consider B5, for which binding was put at a Kd of 25.1 nM, the koff was 0.00732 s⁻¹ and the kon turned out to be 292000 M⁻¹ s⁻¹.
For the molecule B6, binding was put at a Kd of 9.23 nM, the off-rate constant (koff) worked out at 0.00321 s⁻¹ and the association rate constant (kon) was 348000 M⁻¹ s⁻¹.
For the molecule B7, the affinity, expressed as Kd, was 10.8 nM; the off-rate constant (koff) stood at 0.00398 s⁻¹; the kon is 368000 M⁻¹ s⁻¹.
For B8 the same measures were 12.2 nM, 0.00321 s⁻¹ and 264000 M⁻¹ s⁻¹.

Another assay has as its target T4, his-tagged hTfR1 (Acro Biosystems p/n CD1-H5243) (human, UniProt P02786 89-760).
T4 construct: Bought reagent of the SPR assay
In words: SPR, Biacore X100, His-tagged TfR1 captured by anti-His. As for the experimental part: Samples were analyzed via Surface Plasmon Resonance (SPR) to determine kinetics against human transferrin receptor 1 (hTfR1). Briefly, a Biacore X100 (Cytiva) was used for SPR measurements using a CM5 chip (carboxymethylated dextran surface, Cytiva p/n BR100399) with anti-histidine antibody irreversibly immobilized on the surface of both flow cells for the reversible capture of his-tagged hTfR1 (Acro Biosystems p/n CD1-H5243). The anti-histidine antibody was irreversibly immobilized via amine coupling using Cytiva provided Amine Coupling Kit (p/n BR100050) and His Capture Kit (p/n 28995056). […] Sample diluent was prepared in house and is composed of 10 mM HEPES buffer pH 7.4, 150 mM NaCl, 3 mM EDTA, and 0.05% Tween 20. Cytiva caps and vials compatible for Biacore X100 are used for sample analysis. Each analysis cycle consists of a capture step followed by sample or blank injection, and finally a regeneration step that removes any sample and hTfR1 on the sensor surface. The capture step was performed at 5 μL/min with a contact time of 24 seconds over the active flow cell only, followed by a fluidics wash with 0.1% Tween 20. Generally, 2 μg/mL hTfR1 is a sufficient concentration to observe adequate hTfR1 captured consistently between cycles. Sample or buffer was injected at 30 μL/min with a contact time of 180 seconds and a dissociation time of 180 seconds followed by a fluidics wash with 0.1% Tween 20. A 10 mM glycine solution at pH 1.5 (provided in His Capture Kit) was used for regeneration at 30 μL/min with a 60 second contact time. A cycle was performed for each sample concentration analyzed along with one cycle repeating one concentration for variability evaluation and 2-3 buffer cycles. Results were analyzed in Biacore Evaluation Software. Buffer cycles were averaged and subtracted from sample injections prior to kinetic fitting. A monovalent or kinetic fit was specified as relevant for the sample analyzed. Accuracy of the fit was evaluated and data points are excluded as applicable. […]
On the technique in general: SPR reads the build-up and loss of mass on a sensor chip optically.
B1 gave a Kd of 0.708 nM, an off-rate (koff) of 0.00101 s⁻¹ and a kon of 1.42e+06 M⁻¹ s⁻¹.
The molecule B2 yielded a Kd of 0.993 nM, a koff of 0.00117 s⁻¹ and an on-rate (kon) of 1.18e+06 M⁻¹ s⁻¹.
For B3, the equilibrium dissociation constant (Kd) was found to be 0.598 nM, the dissociation rate constant (koff) was 0.00105 s⁻¹ and the on-rate (kon) turned out to be 1.75e+06 M⁻¹ s⁻¹.
B4 gave a Kd of 0.907 nM, an off-rate constant (koff) of 0.00111 s⁻¹ and an on-rate (kon) of 1.22e+06 M⁻¹ s⁻¹.

Another assay deals with T5, his-tagged cTfR1 (Acro Biosystems p/n TFR-C524a) (cynomolgus monkey, UniProt H9EXL1 89-760 (rhesus entry)).
T5 construct: Bought reagent of the SPR assay
T5 sequence (chain, as listed by the source): as above
The description is as above. As for the experimental part:
Samples were analyzed via Surface Plasmon Resonance (SPR) to determine kinetics against cynomolgus monkey transferrin receptor 1 (cTfR1). Briefly, a Biacore X100 (Cytiva) was used for SPR measurements using a CM5 chip (carboxymethylated dextran surface, Cytiva p/n BR100399) with anti-histidine antibody irreversibly immobilized on the surface of both flow cells for the reversible capture of his-tagged cTfR1 (Acro Biosystems p/n TFR-C524a). The anti-histidine antibody was irreversibly immobilized via amine coupling using Cytiva provided Amine Coupling Kit (p/n BR100050) and His Capture Kit (p/n 28995056). […] Sample diluent was prepared in house and is composed of 10 mM HEPES buffer pH 7.4, 150 mM NaCl, 3 mM EDTA, and 0.05% Tween 20. Cytiva caps and vials compatible for Biacore X₁₀₀ were used for sample analysis. Each analysis cycle consists of a capture step followed by sample or blank injection, and finally a regeneration step that removes any sample and cTfR1 on the sensor surface. The capture step was performed at 5 μL/min with a contact time of 24 seconds over the active flow cell only, followed by a fluidics wash with 0.1% Tween 20. Generally, 2 μg/mL hTfR1 was a sufficient concentration to observe adequate hTfR1 captured consistently between cycles. Sample or buffer was injected at 30 μL/min with a contact time of 180 seconds and dissociation time of 180 seconds followed by a fluidics wash with 0.1% Tween 20. A 10 mM glycine solution at pH 1.5 (provided in His Capture Kit) was used for regeneration at 30 μL/min with a 60 second contact time. A cycle was performed for each sample concentration analyzed along with one cycle repeating one concentration for variability evaluation and 2-3 buffer cycles. Results were analyzed in Biacore Evaluation Software. Buffer cycles were averaged and subtracted from sample injections prior to kinetic fitting. A monovalent or kinetic fit was specified as relevant for the sample analyzed. Accuracy of the fit is evaluated and data points are excluded as applicable.
Molecule B1 returned a Kd of 1.75 nM, a koff of 0.0037 s⁻¹ and an association rate constant (kon) of 2.11e+06 M⁻¹ s⁻¹.
Regarding B2, binding was characterised by a dissociation constant (Kd) of 3.22 nM, the koff turned out to be 0.00515 s⁻¹ and the on-rate constant (kon) amounted to 1.6e+06 M⁻¹ s⁻¹.
In the case of B3, the dissociation constant Kd is 2.72 nM, the koff was found to be 0.00446 s⁻¹ and the association rate constant (kon) was found to be 1.64e+06 M⁻¹ s⁻¹.
Turning to B4, the Kd worked out at 2.71 nM, the koff was found to be 0.00357 s⁻¹ and the association rate constant (kon) amounted to 1.32e+06 M⁻¹ s⁻¹.

For another assay, the target named is T1, cynomolgus monkey transferrin receptor …. Put plainly: competition ELISA, Fab.
Consider B1, for which the dissociation constant Kd was 5.15 nM.
The molecule B2 registered a Kd of 9.14 nM.
With B3, the affinity, expressed as Kd, was 5.57 nM.
The molecule B4 gave an equilibrium dissociation constant (Kd) of 4.58 nM.

The next assay has as its target T6, biotinylated hTfR1 (Acro Bio p/n TFR-H82E5) (human, UniProt P02786 89-760, biotinylated; site not stated).
T6 construct: Bought reagent of the BLI assay
Put plainly: BLI, Octet RH16, biotinylated TfR1 on streptavidin sensor; Fab-siRNA conjugate. As for the experimental part:
Samples were analyzed via Bio-Layer Interferometry (BLI) to determine kinetics against human transferrin receptor 1 (hTfR1). Briefly, an Octet RH16 (Sartorius) was used for BLI measurements using streptavidin biosensors (Sartorius p/n 18-5019) to irreversibly immobilize biotinylated hTfR1 (Acro Bio p/n TFR-H82E5). […] Sample diluent was prepared in house and is composed of 10 mM PBS pH 7.4 (150 mM NaCl), 0.01% BSA, 0.002% Tween 20, and 0.01% kathon. A 96-well plate was used for analysis, filled with required samples solutions and a row of 10 μg/mL hTfR1 for loading of the streptavidin sensors. For each sample, one well was reserved for a reference sensor control (non-specific binding evaluation with no hTfR1 on surface in highest sample concentration) and a sample reference (buffer only on a hTfR1 loaded sample). One well was also reserved for a second replicate of one of the five concentrations to evaluate sensor and method variability. Eight channels were used for the highest sensitivity offered by the Octet RH16. For each assay performed, the steps were as follows: a sensor check for baseline evaluation of sensor alone in buffer was performed for 30 seconds, followed by loading of the cTfR1 for 60 seconds, then a baseline check for 90 seconds to verify stability of cTfR1 immobilized to sensor surface, then sample association for 180 seconds, and finally sample dissociation for 300 seconds. A shake speed of 1000 was used for all steps. Sample results are analyzed in Octet Analysis software.
In turn, B5 yielded a Kd of 16.7 nM, a koff of 0.00349 s⁻¹ and an association rate constant (kon) of 209000 M⁻¹ s⁻¹.
Molecule B6 returned a Kd of 2.1 nM, an off-rate (koff) of 0.000615 s⁻¹ and a kon of 292000 M⁻¹ s⁻¹.
B7 had a Kd of 0.898 nM, a koff of 0.000262 s⁻¹ and an on-rate (kon) of 292000 M⁻¹ s⁻¹.
Molecule B8 displayed a Kd of 2.78 nM, an off-rate constant (koff) of 0.000793 s⁻¹ and a kon of 286000 M⁻¹ s⁻¹.

A further assay deals with T2, human transferrin receptor 1 (hTfR1). In words: competition phage ELISA (phage-displayed Fab).
In the case of B1, the dissociation constant (Kd) was 0.49 nM.
On the same count and under the same terms, for B2 the value was 0.65 nM.
Still for that read-out and setting: for B3 the value was 0.48 nM; for B4, 0.49 nM.
